Reference: US20250262210A1 (TRUSTEES OF COLUMBIA UNIVERSITY IN THE CITY OF NEW YORK, published 2025)

What was measured:
Assay in all cases: IP/MS, LZTR1 R810W-FLAG, U87
CC2D1A = molecular target: T1, CC2D1A (human, UniProt Q6P1N0 1-951, limits assumed)
T1 sequence (looked up): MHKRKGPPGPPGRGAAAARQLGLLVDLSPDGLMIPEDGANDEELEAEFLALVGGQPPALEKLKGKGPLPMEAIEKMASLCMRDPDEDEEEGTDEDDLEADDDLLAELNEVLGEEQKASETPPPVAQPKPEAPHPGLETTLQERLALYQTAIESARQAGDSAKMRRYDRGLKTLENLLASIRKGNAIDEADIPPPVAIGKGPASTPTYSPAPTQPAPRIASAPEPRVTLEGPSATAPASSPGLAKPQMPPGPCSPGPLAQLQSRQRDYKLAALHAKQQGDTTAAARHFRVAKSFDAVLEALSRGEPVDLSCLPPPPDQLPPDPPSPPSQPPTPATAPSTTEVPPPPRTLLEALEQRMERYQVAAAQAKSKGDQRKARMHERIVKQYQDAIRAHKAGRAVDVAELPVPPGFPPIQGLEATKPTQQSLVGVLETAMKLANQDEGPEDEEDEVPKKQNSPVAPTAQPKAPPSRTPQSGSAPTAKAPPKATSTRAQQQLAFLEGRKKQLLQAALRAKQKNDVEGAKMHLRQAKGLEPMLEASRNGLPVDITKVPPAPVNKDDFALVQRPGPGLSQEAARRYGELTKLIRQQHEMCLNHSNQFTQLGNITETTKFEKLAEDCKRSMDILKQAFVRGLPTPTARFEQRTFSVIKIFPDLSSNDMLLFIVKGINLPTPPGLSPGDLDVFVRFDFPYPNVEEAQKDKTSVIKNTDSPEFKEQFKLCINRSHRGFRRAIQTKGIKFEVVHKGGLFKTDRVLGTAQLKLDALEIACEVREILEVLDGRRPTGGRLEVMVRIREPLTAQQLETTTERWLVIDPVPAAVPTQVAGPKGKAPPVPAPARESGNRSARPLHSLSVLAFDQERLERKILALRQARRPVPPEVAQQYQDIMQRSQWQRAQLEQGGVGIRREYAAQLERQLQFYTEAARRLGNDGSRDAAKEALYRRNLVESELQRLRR
Method in brief: (§1)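 Gel slices were reduced with 5 mM DTT, alkylated with 11 mM IAA and digested overnight at 37° C. with trypsin. Peptides were analysed on an Orbitrap Fusion Tribrid by LC-MS/MS.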

TTI1 = TTI1 (human, UniProt O43156 1-1089)
Method in brief: as §1

WDR6 = molecular target: T2, WDR6 (human, UniProt Q9NNW5 1-1121)
T2 sequence (looked up): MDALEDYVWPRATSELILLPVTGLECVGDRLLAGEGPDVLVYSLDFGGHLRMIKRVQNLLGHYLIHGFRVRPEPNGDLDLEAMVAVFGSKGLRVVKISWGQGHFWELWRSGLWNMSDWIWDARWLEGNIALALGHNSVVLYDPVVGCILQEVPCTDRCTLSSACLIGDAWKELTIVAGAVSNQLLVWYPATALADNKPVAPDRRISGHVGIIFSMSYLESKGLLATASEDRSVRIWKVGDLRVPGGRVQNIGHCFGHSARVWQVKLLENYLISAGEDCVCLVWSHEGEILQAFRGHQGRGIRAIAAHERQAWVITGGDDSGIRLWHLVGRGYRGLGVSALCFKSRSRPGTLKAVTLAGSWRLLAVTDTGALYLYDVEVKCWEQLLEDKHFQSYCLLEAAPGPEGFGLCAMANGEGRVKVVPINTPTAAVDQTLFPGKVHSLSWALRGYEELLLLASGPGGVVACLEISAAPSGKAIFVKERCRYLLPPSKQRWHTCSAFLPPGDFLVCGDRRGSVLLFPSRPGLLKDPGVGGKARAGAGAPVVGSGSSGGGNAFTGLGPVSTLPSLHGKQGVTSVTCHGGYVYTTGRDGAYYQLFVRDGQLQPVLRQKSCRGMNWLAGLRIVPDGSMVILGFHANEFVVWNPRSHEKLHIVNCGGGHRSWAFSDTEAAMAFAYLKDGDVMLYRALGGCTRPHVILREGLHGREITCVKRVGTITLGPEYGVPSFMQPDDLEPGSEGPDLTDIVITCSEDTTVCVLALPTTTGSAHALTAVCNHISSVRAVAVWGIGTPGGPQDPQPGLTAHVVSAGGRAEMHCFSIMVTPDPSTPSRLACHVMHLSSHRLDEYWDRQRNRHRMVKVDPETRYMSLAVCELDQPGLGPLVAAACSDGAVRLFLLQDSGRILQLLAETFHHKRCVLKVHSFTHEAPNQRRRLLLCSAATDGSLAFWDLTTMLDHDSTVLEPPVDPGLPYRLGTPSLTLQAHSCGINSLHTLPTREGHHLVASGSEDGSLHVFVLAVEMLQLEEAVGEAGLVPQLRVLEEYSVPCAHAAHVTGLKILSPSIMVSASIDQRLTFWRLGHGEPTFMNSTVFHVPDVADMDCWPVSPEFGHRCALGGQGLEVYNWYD
Method in brief: as §1

Measured: binding result

Sequence of TTI1 (O43156 whole entry): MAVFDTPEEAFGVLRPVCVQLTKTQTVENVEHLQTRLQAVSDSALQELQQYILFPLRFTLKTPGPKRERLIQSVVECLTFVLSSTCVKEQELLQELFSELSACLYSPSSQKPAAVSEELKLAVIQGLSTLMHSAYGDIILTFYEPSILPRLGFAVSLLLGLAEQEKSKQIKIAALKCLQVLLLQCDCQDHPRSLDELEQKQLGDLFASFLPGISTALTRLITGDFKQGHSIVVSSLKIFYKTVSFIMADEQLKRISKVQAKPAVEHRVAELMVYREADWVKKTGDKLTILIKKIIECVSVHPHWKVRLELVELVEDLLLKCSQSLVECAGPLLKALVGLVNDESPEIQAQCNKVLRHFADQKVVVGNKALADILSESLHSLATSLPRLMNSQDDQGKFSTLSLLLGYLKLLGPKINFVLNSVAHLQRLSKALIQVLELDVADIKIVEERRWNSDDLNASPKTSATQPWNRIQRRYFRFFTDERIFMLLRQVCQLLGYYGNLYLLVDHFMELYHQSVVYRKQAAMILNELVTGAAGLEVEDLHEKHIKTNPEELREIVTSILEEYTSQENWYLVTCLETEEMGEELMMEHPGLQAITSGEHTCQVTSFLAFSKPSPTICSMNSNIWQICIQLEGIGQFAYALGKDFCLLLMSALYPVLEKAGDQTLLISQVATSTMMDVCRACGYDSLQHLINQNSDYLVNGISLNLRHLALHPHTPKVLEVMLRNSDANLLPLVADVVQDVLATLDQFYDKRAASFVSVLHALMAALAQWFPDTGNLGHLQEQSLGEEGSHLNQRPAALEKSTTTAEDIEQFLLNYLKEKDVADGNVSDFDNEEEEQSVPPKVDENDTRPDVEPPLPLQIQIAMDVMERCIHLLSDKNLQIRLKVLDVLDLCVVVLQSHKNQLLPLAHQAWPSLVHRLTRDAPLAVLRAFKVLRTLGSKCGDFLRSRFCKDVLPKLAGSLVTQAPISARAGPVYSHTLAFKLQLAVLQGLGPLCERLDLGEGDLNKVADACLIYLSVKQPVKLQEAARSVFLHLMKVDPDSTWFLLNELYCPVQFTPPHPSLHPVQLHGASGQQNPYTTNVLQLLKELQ

B1: LZTR1 R810W-FLAG (other, human, UniProt Q8N653 1-840, looked up)
chain: MAGPGSTGGQIGAAALAGGARSKVAPSVDFDHSCSDSVEYLTLNFGPFETVHRWRRLPPCDEFVGARRSKHTVVAYKDAIYVFGGDNGKTMLNDLLRFDVKDCSWCRAFTTGTPPAPRYHHSAVVYGSSMFVFGGYTGDIYSNSNLKNKNDLFEYKFATGQWTEWKIEGRLPVARSAHGATVYSDKLWIFAGYDGNARLNDMWTIGLQDRELTCWEEVAQSGEIPPSCCNFPVAVCRDKMFVFSGQSGAKITNNLFQFEFKDKTWTRIPTEHLLRGSPPPPQRRYGHTMVAFDRHLYVFGGAADNTLPNELHCYDVDFQTWEVVQPSSDSEVGGAEVPERACASEEVPTLTYEERVGFKKSRDVFGLDFGTTSAKQPTQPASELPSGRLFHAAAVISDAMYIFGGTVDNNIRSGEMYRFQFSCYPKCTLHEDYGRLWESRQFCDVEFVLGEKEECVQGHVAIVTARSRWLRRKITQARERLAQKLEQEAAPVPREAPGVAAGGARPPLLHVAIREAEARPFEVLMQFLYTDKIKYPRKGHVEDVLLIMDVYKLALSFQLCRLEQLCRQYIEASVDLQNVLVVCESAARLQLSQLKEHCLNFVVKESHFNQVIMMKEFERLSSPLIVEIVRRKQQPPPRTPLDQPVDIGTSLIQDMKAYLEGAGAEFCDITLLLDGHPRPAHKAILAARSSYFEAMFRSFMPEDGQVNISIGEMVPSRQAFESMLRYIYYGEVNMPPEDSLYLFAAPYYYGFYNNRLQAYCKQNLEMNVTVQNVLQILEAADKTQALDMKRHCLHIIVHQFTKVSKLPTLWSLSQQLLLDIIDSLASHISDKQCAELGADI
notes: Stably expressed in U87 cells by lentivirus; also called LZTR1-FLAG-R810W; LZTR1 RW; not shown: FLAG tag
binds: CC2D1A | TTI1 | WDR6
